The source of these data is patent US20050032694A1.

The experiment deals with rat agrin (the transmembrane isoform Y4, Z8) (rat) (UniProt P25304). Description: cell-based or functional assay.
UniProt P25304, sequence (P25304 whole entry, canonical isoform): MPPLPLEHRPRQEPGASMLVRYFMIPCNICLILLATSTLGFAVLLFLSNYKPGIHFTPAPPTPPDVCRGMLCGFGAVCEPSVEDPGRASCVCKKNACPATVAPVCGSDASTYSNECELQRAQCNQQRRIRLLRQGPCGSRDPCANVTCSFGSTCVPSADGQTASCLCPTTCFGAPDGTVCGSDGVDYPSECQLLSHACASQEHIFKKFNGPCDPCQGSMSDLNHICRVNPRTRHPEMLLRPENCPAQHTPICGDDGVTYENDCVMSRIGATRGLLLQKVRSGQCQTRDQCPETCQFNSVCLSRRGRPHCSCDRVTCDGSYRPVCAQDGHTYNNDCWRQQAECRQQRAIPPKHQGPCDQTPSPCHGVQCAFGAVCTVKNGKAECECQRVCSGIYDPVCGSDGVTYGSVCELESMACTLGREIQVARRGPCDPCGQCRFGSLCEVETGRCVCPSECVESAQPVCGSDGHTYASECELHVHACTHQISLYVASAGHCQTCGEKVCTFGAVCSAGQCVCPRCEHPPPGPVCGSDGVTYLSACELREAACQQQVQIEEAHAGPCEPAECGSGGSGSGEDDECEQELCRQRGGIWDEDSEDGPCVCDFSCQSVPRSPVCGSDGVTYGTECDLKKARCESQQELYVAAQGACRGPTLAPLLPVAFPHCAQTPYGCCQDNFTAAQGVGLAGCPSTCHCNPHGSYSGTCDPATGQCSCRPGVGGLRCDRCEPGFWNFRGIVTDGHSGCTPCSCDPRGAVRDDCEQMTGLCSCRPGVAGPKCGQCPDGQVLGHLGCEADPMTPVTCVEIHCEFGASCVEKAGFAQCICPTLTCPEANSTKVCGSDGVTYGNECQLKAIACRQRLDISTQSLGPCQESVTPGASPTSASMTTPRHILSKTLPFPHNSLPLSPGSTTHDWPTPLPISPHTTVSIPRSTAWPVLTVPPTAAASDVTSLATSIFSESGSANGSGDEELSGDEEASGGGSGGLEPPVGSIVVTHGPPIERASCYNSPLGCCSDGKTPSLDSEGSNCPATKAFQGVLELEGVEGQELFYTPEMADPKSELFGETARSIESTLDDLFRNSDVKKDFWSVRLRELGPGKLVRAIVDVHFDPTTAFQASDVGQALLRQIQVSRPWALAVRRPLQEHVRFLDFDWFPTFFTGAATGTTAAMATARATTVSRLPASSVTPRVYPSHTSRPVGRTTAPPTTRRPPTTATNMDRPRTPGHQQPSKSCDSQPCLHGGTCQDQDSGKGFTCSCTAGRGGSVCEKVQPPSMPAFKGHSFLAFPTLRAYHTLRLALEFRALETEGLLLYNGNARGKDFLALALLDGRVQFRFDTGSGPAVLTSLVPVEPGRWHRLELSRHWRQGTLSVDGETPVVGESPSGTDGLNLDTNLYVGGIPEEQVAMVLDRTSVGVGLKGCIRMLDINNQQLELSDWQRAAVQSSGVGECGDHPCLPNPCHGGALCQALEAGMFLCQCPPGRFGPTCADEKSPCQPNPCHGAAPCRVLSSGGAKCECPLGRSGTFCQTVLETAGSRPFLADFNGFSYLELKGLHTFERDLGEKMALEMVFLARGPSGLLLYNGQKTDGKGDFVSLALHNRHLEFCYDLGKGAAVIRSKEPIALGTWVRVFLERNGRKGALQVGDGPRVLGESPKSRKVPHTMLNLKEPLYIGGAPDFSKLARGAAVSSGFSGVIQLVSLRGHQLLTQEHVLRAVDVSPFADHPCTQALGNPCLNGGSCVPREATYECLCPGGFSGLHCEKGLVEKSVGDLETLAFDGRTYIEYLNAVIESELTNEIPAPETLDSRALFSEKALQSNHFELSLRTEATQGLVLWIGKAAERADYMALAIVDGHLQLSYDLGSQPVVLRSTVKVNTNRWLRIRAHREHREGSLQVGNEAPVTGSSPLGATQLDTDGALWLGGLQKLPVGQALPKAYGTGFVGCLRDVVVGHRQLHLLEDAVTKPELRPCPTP

On to “neurotrypsin of the mouse (compound of the formula II) (from UniProt O08762 22-761) (enzyme)”, for which the soluble agrin fragment in culture medium of co-transfected HEK293T cells (Western blot) was 100 kDa.
